The text below walks through data of the Human Domainome abundance scans (Beltran et al. 2025).

To fix the notation:
B1: Probable E3 ubiquitin-protein ligase MID2, residues 191 to 235; numbered along this chain, Q9UJV3 (parent)
chain: RGITCLDHENEKVNMYCVSDDQLICALCKLVGRHRDHQVASLNDR

± gives the uncertainty stated by the source.

The variants in this data set derive from B1. In words: abundance fitness (aPCA) (normalised: wild type 0, dead -1); higher = more abundant; growth selection in yeast, the domain comes from the species named. The settings on record: Homo sapiens.
On to RGITCLDHENEKVNMYCVSDDQLICALCKLVGRHDDHQVASLNDR, for which the abundance fitness is -0.242 ± 0.1.
For RGITCLDHENEKVNMYCVSDDQLICALCKLVGRHFDHQVASLNDR, the abundance fitness is -0.529 ± 0.12.
For the variant RGITCLDHENEKVNMYCVSDDQLICALCKLVGRHLDHQVASLNDR, the abundance fitness is -0.321 ± 0.068.
In the case of RGITCLDHENEKVNMYCVSDDQLICALCKLVGRHMDHQVASLNDR, the abundance fitness is -0.024 ± 0.1.
Next, RGITCLDHENEKVNMYCVSDDQLICALCKLVGYHRDHQVASLNDR: -0.088 ± 0.24; RGITCLDHENEKVNMYCVSDDQLICALCKLVGWHRDHQVASLNDR: -0.39 ± 0.076.
For the variant RGITCLDHENEKVNMYCVSDDQLICALCKLVGRHRDHQVYSLNDR, the abundance fitness is -0.2 ± 0.23.
As for RGITCLDHENEKVNMYCVSDDQLICALCKLVGRHRDHQVRSLNDR, the abundance fitness was 0.014 ± 0.052.
With RGITCLDHENEKVNMYCVSDDQLICALCKLVGRHRDHQVKSLNDR, the abundance fitness was -0.138 ± 0.12.
Take RGITCLDHENEKVNMYCVSDDQLICALCKLVGRHRDHQVDSLNDR: the abundance fitness amounted to 0.043 ± 0.077.
The same measure for RGITCLDHENEKVNMYCVSDDQLICALCKLVGRHRDHQVNSLNDR: -0.082 ± 0.23; for RGITCLDHENEKVNMYCVSDDQLICALCKLVGRHRDHQVESLNDR: 0.072 ± 0.069.
Regarding RGITCLDHENEKVNMYCVSDDQLICALCKLVGRHRDHQVTSLNDR, the abundance fitness is -0.068 ± 0.12.
In the case of RGITCLDHENEKVNMYCVSDDQLICALCKLVGRHRDHQVHSLNDR, the abundance fitness was -0.296 ± 0.18.
For the variant RGITCLDHENEKVNMYCVSDDQLICALCKLVGRHRDHQVQSLNDR, the abundance fitness turned out to be 0.09 ± 0.076.
In the case of RGITCLDHENEKVNMYCVSDDQLICALCKLVGRHRDHQVGSLNDR, the abundance fitness was found to be 0.003 ± 0.052.
On to RGITCLDHENEKVNMYCVSDDQLICALCKLVGRHRDHQVFSLNDR, for which the abundance fitness was -0.176 ± 0.1.
RGITCLDHENEKVNMYCVSDDQLICALCKLVGRHRDHQVWSLNDR: the abundance fitness is -0.155 ± 0.07.
Turning to RGITCLDHENEKVNMYCVSDDQLICALCKLVGRHRDHQVMSLNDR, the abundance fitness was -0.216 ± 0.086.
For RGITCLDHENEKVNMYCVSDDQLICALCKLVGRHRDHQVCSLNDR, the abundance fitness is -0.063 ± 0.068.
Consider RGITCLDHENEKVNMYCVSDDQLICALCKLVGRHRDHQVSSLNDR, for which the abundance fitness came to 0.063 ± 0.057.
The same measure for RGITCLDHENEKVNMYCVSDDQLICALCKLVGRHRDHQVPSLNDR: -0.415 ± 0.095; for RGITCLDHENEKVNMYCVSDDQLICALCKLVGRHRDHQVAFLNDR: -0.385 ± 0.14; for RGITCLDHENEKVNMYCVSDDQLICALCKLVGRHRDHQVAALNDR: -0.08 ± 0.063.
In the case of RGITCLDHENEKVNMYCVSDDQLICALCKLVGRHRDHQVACLNDR, the abundance fitness was -0.071 ± 0.085.
Take RGITCLDHENEKVNMYCVSDDQLICALCKLVGRHRDHQVAGLNDR: the abundance fitness is -0.021 ± 0.055.
Consider RGITCLDHENEKVNMYCVSDDQLICALCKLVGRHRDHQVADLNDR, for which the abundance fitness came to 0.087 ± 0.074.
For the variant RGITCLDHENEKVNMYCVSDDQLICALCKLVGRHRDHQVAHLNDR, the abundance fitness was -0.135 ± 0.14.
The same measure for RGITCLDHENEKVNMYCVSDDQLICALCKLVGRHRDLQVASLNDR: -0.584 ± 0.11; for RGITCLDHENEKVNMYCVSDDQLICALCKLVGRHRDYQVASLNDR: -0.519 ± 0.12.
Consider RGITCLDHENEKVNMYCVSDDQLICALCKLVGRHRDMQVASLNDR, for which the abundance fitness was -0.684 ± 0.1.
For the variant RGITCLDHENEKVNMYCVSDDQLICALCKLVGRHRDAQVASLNDR, the abundance fitness was -0.313 ± 0.065.
The same measure for RGITCLDHENEKVNMYCVSDDQLICALCKLVGRHRDKQVASLNDR: 0.271 ± 0.068; for RGITCLDHENEKVNMYCVSDDQLICALCKLVGRHRDQQVASLNDR: -0.365 ± 0.093; for RGITCLDHENEKVNMYCVSDDQLICALCKLVGRHRDGQVASLNDR: -0.283 ± 0.056.
Take RGITCLDHENEKVNMYCVSDDQLICALCKLVGRHRDTQVASLNDR: the abundance fitness was -0.295 ± 0.065.
The same measure for RGITCLDHENEKVNMYCVSDDQLICALCKLVGRHRDSQVASLNDR: -0.482 ± 0.091; for RGITCLDHENEKVNMYCVSDDQLICALCKLVGRHRDRQVASLNDR: -0.492 ± 0.061; for RGITCLDHENEKVNMYCVSDDQLICALCKLVGRHRDIQVASLNDR: -1.04 ± 0.31.
On to RGITCLDHENEKVNMYCVSDDQLICALCKLVGRHRDDQVASLNDR, for which the abundance fitness is -0.274 ± 0.09.
For RGITCLDHENEKVNMYCVSDDQLICALCKLVGRMRDHQVASLNDR, the abundance fitness was -0.677 ± 0.096.
On to RGITCLDHENEKVNMYCVSDDQLICALCKLVGRYRDHQVASLNDR, for which the abundance fitness is -0.634 ± 0.29.
Consider RGITCLDHENEKVNMYCVSDDQLICALCKLVGRDRDHQVASLNDR, for which the abundance fitness is -0.66 ± 0.13.
For RGITCLDHENEKVNMYCVSDDQLICALCKLVGRTRDHQVASLNDR, the abundance fitness is -0.473 ± 0.1.
Next, RGITCLDHENEKVNMYCVSDDQLICALCKLVGRQRDHQVASLNDR: -0.319 ± 0.087; RGITCLDHENEKVNMYCVSDDQLICALCKLVGRSRDHQVASLNDR: -0.387 ± 0.1.
Next, RGITCLDHENEKVNMYCVSDDQLICALCKLVGRGRDHQVASLNDR: -0.383 ± 0.063; RGITCLDHENEKVNMYCVSDDQLICALCKLVGRKRDHQVASLNDR: -0.402 ± 0.11; RGITCLDHENEKVNMYCVSDDQLICALCKLVGRARDHQVASLNDR: -0.48 ± 0.062.
Consider RGITCLDHENEKVNMYCVSDDQLICALCKLVGRNRDHQVASLNDR, for which the abundance fitness was -0.474 ± 0.12.
With RGITCLDHENEKVNMYCVSDDQLICALCKLVGRPRDHQVASLNDR, the abundance fitness was -0.66 ± 0.15.
In the case of RGITCLDHENEKVNMYCVSDDQLICALCKLVGRLRDHQVASLNDR, the abundance fitness is -1.13 ± 0.19.
For RGITCLDHENEKVNMYCVSDDQLICALCKLVGRRRDHQVASLNDR, the abundance fitness was -0.459 ± 0.064.
For RGITCLDHENEKVNMYCVSDDQLICALCKLVGRWRDHQVASLNDR, the abundance fitness is -0.997 ± 0.12.
For RGITCLDHENEKVNMYCVSDDQLICALCKLVGRFRDHQVASLNDR, the abundance fitness was -0.184 ± 0.16.
Consider RGITCLDHENEKVNMYCVSDDQLICALCKLVGRERDHQVASLNDR, for which the abundance fitness is -0.368 ± 0.12.
As to RGITCLDHENEKVNMYCVSDDQLICALCKLVGRVRDHQVASLNDR, the abundance fitness was -0.558 ± 0.081.
